Experiment [1] has as its target T1, recombinant cynomolgus monkey TNFR2 (Cyno. TNFR2) (Sino Biological, 90102-C021) (cynomolgus monkey, UniProt A0A2K5VET2 132-366).
T1 sequence: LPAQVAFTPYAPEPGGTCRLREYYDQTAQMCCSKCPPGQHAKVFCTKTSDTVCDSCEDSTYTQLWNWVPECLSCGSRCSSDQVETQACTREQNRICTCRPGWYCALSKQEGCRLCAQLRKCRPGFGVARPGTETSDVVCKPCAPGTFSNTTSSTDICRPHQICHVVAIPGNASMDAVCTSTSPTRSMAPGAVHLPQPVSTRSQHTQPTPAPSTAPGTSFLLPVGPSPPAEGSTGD
Description: ELISA, plate coated with recombinant cynomolgus monkey TNFR2. As to the method: (§1) After TMB development, the detection was performed using microplate reader: dual wavelength 450 nm/655 nm detection, and results were calculated by OD₄₅₀-OD₆₅₅.
(§2) Using the same method as above, the TNFR2 antigens of cynomolgus monkey and mouse (Sino Biological, 90102-C021 and 50128-M08H) were coated separately. The anti-human TNFR2 mouse monoclonal antibodies to be tested were gradient diluted, then added with the anti-mouse Fab segment secondary antibody (Jackson Immuno Research, 515-035-072), and TMB development was performed. ELISA was used to detect the binding of 8 strains of mouse monoclonal antibodies to recombinant mouse TNFR2 (mTNFR2) and cynomolgus monkey TNFR2 (Cyno. TNFR2).

Experiment [2] has as its target T2, recombinant human TNFR2 antigen (Kangdai, batch number A100114U) (human, UniProt P20333 23-257).
T2 construct: also called hTNFR2; TNFR2-FC (Shanghai Saijin Biopharmaceutical Co., Ltd., Qiangke, catalog number A100114U); not shown: Fc part of the bought TNFR2-FC
T2 sequence (looked up): T1 sequence with G16S, P36S, Q117P, H164N, A210E, G216S, V223M
Description: ELISA, plate coated with recombinant human TNFR2 antigen. As to the method: as §1

Experiment [3] has as its target T1, recombinant cynomolgus monkey TNFR2 …. Put plainly: ELISA, coated cynomolgus TNFR2. How it is done:
as §1, §2
For orientation: ELISA stands for enzyme-linked immunosorbent assay.

The target in experiment [4] is T3, recombinant mouse TNFR2 (mTNFR2) (Sino Biological, 50128-M08H) (mouse, UniProt P25119 23-258).
T3 sequence (looked up): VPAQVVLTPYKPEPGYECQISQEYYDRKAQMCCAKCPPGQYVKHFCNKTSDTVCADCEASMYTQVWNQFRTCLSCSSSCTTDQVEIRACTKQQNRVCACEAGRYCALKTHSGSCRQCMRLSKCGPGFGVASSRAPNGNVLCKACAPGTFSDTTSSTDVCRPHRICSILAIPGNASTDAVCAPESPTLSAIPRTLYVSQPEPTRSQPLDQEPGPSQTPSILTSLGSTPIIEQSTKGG
Put plainly: ELISA, plate coated with recombinant mouse TNFR2. As to the method:
as §1, §2

In experiment [5] the target is T4, human TNFR2 on the cell membrane (human, UniProt P20333 23-461).
T4 construct: whole, on cells; One molecule for all cell formats; also called TNFR2-CHO cells; CHO-TNFR2
T4 sequence (looked up): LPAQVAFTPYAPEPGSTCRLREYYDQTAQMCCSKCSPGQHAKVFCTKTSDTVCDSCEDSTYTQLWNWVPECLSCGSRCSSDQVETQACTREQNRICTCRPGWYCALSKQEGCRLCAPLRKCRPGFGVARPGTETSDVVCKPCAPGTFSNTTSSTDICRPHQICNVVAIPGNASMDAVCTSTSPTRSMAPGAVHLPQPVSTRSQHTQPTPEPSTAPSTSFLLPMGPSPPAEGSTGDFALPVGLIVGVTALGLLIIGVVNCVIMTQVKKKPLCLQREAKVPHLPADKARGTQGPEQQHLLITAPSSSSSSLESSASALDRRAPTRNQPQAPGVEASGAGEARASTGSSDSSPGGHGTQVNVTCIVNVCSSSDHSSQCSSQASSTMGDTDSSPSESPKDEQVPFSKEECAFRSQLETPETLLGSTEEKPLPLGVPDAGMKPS
Description: flow cytometry, TNFR2-CHO cells. How it is done: (§3) Purified anti-human TNFR2 mouse monoclonal antibodies were co-incubated with TNFR2 overexpressing CHO cell lines (obtained routinely as follows: PCDNA3.4-TNFR2 was transfected into CHO cells, and stable high expression TNFR2 cell lines were obtained through drug screening and monoclonal sorting), and then stained. The antibody binding intensity was analyzed by flow cytometry. The specific steps are as follows: TNFR2-CHO cells were counted, centrifuged, resuspended, then added to a 96-deep well plate, and the supernatant was discarded. The anti-TNFR2 antibodies to be tested were gradient diluted, added to the 96-deep well plate. […] The samples were detected using Beckman CytoFLEX.

In experiment [6] the target is T4, human TNFR2 on the cell membrane. Description: flow cytometry on TNFR2-CHO cells. As to the method:
as §3

Experiment [7] concerns the target T2, recombinant human TNFR2 antigen …. Put plainly: ELISA, coated recombinant human TNFR2. How it is done: as §1

Numbering of substitutions follows the chain as printed.

B1: anti-human TNFR2 mouse monoclonal antibody 16D2 (antibody, V domains shown)
VH: EVQLQQSEPELVKPGASVKIPCKASGYTFTDYNMDWVKQSHGKSLEWIGDINPNNGVTIYNQKFKGKATLTVDKSSSTAYMELRSLTSEDTAVYYCVILEYFDYWGQGTTLTVSS
VL: DIVMTQSTSSMSVSLGDTVSITCHASQGISSNIGWLQQKPGKSFKGLIYHGTKLEDGVPSRFSGSGSGADYSLTISSLESEDFADYYCVQYAQFPRTFGGGTKLEIK
As a reminder, the EC50 is the concentration at which the effect is half-maximal. B1: the EC50 in experiment [1] amounted to 0.248 nM; in experiment [2], 0.146 nM; in experiment [3], 0.0371 µg/mL; in experiment [5], 5.71 µg/mL; in experiment [6], 38.3 nM; in experiment [7], 0.0218 µg/mL. Further, the binding result in experiment [4] is “no binding”.
